T1: FcgRIIaR (human, UniProt P12318 34-217)
T1 construct: extracellular domain; also called FcγRIIa R type; FcγRIIa (R type)
T1 sequence (looked up): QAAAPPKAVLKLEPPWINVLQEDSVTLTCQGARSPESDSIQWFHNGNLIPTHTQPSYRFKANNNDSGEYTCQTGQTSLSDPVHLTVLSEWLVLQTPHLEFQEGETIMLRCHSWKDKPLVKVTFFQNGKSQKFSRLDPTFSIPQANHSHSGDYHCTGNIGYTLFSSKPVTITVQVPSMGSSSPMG

T2: FcgRIIb (human, UniProt P31994 43-217)
T2 construct: extracellular domain; also called FcγRIIb
T2 sequence (looked up): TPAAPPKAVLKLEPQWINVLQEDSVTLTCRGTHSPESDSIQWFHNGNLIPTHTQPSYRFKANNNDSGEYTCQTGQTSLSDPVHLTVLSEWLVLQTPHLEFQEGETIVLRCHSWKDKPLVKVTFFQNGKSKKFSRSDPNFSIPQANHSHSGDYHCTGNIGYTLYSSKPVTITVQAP


Tests used:
human complement C1q = target: T3, human complement C1q (human, UniProt P02745 23-245; P02746 28-253; P02747 29-245); assay: SPR, C1q bound per antibody captured on Protein L
T3 construct: Bought (PROSPEC or Calbiochem); also called human C1q
T3 sequence (P02745 23-245 limits assumed, chain 1 of 3): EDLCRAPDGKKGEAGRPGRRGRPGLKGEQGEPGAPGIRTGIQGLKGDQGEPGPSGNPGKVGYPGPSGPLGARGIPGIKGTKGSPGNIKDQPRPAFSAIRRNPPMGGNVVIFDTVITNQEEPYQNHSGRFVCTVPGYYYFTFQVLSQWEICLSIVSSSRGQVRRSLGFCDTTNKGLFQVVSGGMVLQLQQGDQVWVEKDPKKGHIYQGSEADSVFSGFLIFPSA
T3 sequence (P02746 28-253 limits assumed, chain 2 of 3): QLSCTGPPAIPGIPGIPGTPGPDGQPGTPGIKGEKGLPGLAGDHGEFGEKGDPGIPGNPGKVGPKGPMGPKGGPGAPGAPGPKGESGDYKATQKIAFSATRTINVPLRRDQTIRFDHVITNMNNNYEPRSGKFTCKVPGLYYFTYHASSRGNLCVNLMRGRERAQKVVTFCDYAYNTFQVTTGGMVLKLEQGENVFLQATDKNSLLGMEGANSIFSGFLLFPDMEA
T3 sequence (P02747 29-245 limits assumed, chain 3 of 3): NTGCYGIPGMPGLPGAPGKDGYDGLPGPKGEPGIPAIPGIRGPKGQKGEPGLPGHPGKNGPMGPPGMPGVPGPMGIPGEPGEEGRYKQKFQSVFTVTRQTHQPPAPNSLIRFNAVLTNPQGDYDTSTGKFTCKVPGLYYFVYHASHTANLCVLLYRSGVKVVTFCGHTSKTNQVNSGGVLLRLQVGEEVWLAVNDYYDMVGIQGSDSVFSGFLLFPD
Summary of the method: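 Antibodies captured on Protein L immobilized on a CM4 chip were exposed to human C1q diluted in HBS-EP+ running buffer at 25° C. C1q binding was normalized as C1q bound divided by antibody captured. The surface was regenerated with 10 mM glycine-HCl, pH 1.5.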

FcgRIIaR = target: T1, FcgRIIaR; assay: SPR, amount bound per captured antibody
FcgRIIb = target: T2, FcgRIIb; assay: SPR, amount bound per captured antibody

| Binder | Amount of C1q-binding when that for G1d is Defined as 100 (human complement C1q) [G1d=100] | Relative FcgRIIaR-binding Activity (FcgRIIaR) [IL6R-G1d/IL6R-L=100] | Relative FcgRIIb-binding Activity (FcgRIIb) [IL6R-G1d/IL6R-L=100] |
| --- | --- | --- | --- |
| IL6R-P763/IL6R-L (antibody, human IgG1, kappa) heavy: QVQLQESGPGLVKPSETLSLTCAVSGHSISHDHAWSWVRQPPGEGLEWIGFISYSGITNYNPSLQGRVTISRDNSKNTLYLQMNSLRAEDTAVYYCARSLARTTAMDYWGEGTLVTVSSASTKGPSVFPLAPSSKSTSGGTAALGCLVKDYFPEPVTVSWNSGALTSGVHTFPAVLQSSGLYSLSSVVTVPSSSLGTQTYICNVNHKPSNTKVDKKVEPKSCDKTHTCPPCPAPELLGGDSVFLFPPKPKDTLMISRTPEVTCVVVDVAEEDGEVKFNWYVDGVEVHNAKTKPREEQYNSTYRVVSVLTVLHQDWLNGKEYKCKVSNKALPAPIEKTISKAKGQPREPQVYTLPPSRDELTKNQVSLTCLVKGFYPSDIAVEWESNGQPENNYKTTPPVLDSDGSFFLYSKLTVDKSRWQQGNVFSCSVMHEALHNHYTQKSLSLSP light: not shown | 41.7 | 101 | 332 |
| IL6R-P772/IL6R-L (antibody, human IgG1, kappa) heavy: QVQLQESGPGLVKPSETLSLTCAVSGHSISHDHAWSWVRQPPGEGLEWIGFISYSGITNYNPSLQGRVTISRDNSKNTLYLQMNSLRAEDTAVYYCARSLARTTAMDYWGEGTLVTVSSASTKGPSVFPLAPSSKSTSGGTAALGCLVKDYFPEPVTVSWNSGALTSGVHTFPAVLQSSGLYSLSSVVTVPSSSLGTQTYICNVNHKPSNTKVDKKVEPKSCDKTHTCPPCPAPELLGGDSVFLFPPKPKDTLMISRTPEVTCVVIDVSHEDGEVKFNWYVDGVEVHNAKTKPREEQYNSTYRVVSVLTVLHQDWLNGKEYKCEVSNKALPAPIEKTISKAKGQPREPQVYTLPPSRDELTKNQVSLTCLVKGFYPSDIAVEWESNGQPENNYKTTPPVLDSDGSFFLYSKLTVDKSRWQQGNVFSCSVMHEALHNHYTQKSLSLSP light: not shown | 21.6 | 84.3 | 196 |
| IL6R-P770/IL6R-L (antibody, human IgG1, kappa) heavy: QVQLQESGPGLVKPSETLSLTCAVSGHSISHDHAWSWVRQPPGEGLEWIGFISYSGITNYNPSLQGRVTISRDNSKNTLYLQMNSLRAEDTAVYYCARSLARTTAMDYWGEGTLVTVSSASTKGPSVFPLAPSSKSTSGGTAALGCLVKDYFPEPVTVSWNSGALTSGVHTFPAVLQSSGLYSLSSVVTVPSSSLGTQTYICNVNHKPSNTKVDKKVEPKSCDKTHTCPPCPAPELLGGDSVFLFPPKPKDTLMISRTPEVTCVVIDVSHEDGEVKFNWYVDGVEVHNAKTKPREEQYNSTYRVVSVLTVLHQDWLNGKEYKCKVSNKGLPSSIEKTISKAKGQPREPQVYTLPPSRDELTKNQVSLTCLVKGFYPSDIAVEWESNGQPENNYKTTPPVLDSDGSFFLYSKLTVDKSRWQQGNVFSCSVMHEALHNHYTQKSLSLSP light: not shown | 1.5 | 78.2 | 188 |
| IL6R-P771/IL6R-L (antibody, human IgG1, kappa) heavy: QVQLQESGPGLVKPSETLSLTCAVSGHSISHDHAWSWVRQPPGEGLEWIGFISYSGITNYNPSLQGRVTISRDNSKNTLYLQMNSLRAEDTAVYYCARSLARTTAMDYWGEGTLVTVSSASTKGPSVFPLAPSSKSTSGGTAALGCLVKDYFPEPVTVSWNSGALTSGVHTFPAVLQSSGLYSLSSVVTVPSSSLGTQTYICNVNHKPSNTKVDKKVEPKSCDKTHTCPPCPAPELLGGDSVFLFPPKPKDTLMISRTPEVTCVVIDVSHEDGEVKFNWYVDGVEVHNAKTKPREEQYNSTYRVVSVLTVLHQDWLNGKEYKCAVSNKALPAPIEKTISKAKGQPREPQVYTLPPSRDELTKNQVSLTCLVKGFYPSDIAVEWESNGQPENNYKTTPPVLDSDGSFFLYSKLTVDKSRWQQGNVFSCSVMHEALHNHYTQKSLSLSP light: not shown | 14.3 | 75.8 | 195 |
| IL6R-P769/IL6R-L (antibody, human IgG1, kappa) heavy: QVQLQESGPGLVKPSETLSLTCAVSGHSISHDHAWSWVRQPPGEGLEWIGFISYSGITNYNPSLQGRVTISRDNSKNTLYLQMNSLRAEDTAVYYCARSLARTTAMDYWGEGTLVTVSSASTKGPSVFPLAPSSKSTSGGTAALGCLVKDYFPEPVTVSWNSGALTSGVHTFPAVLQSSGLYSLSSVVTVPSSSLGTQTYICNVNHKPSNTKVDKKVEPKSCDKTHTCPPCPAPELLGGDSVFLFPPKPKDTLMISRTPEVTCVVIDVSHEDGEVKFNWYVDGVEVHNAKTKPREEQYNSTYRVVSVLTVLHQDWLNGKEYKCKVSNKALPAPIEKTISKAKGQPREPQVYTLPPSRDELTKNQVSLTCLVKGFYPSDIAVEWESNGQPENNYKTTPPVLDSDGSFFLYSKLTVDKSRWQQGNVFSCSVMHEALHNHYTQKSLSLSP light: not shown | 31.3 | 86.7 | 196 |
| IL6R-P765/IL6R-L (antibody, human IgG1, kappa) heavy: QVQLQESGPGLVKPSETLSLTCAVSGHSISHDHAWSWVRQPPGEGLEWIGFISYSGITNYNPSLQGRVTISRDNSKNTLYLQMNSLRAEDTAVYYCARSLARTTAMDYWGEGTLVTVSSASTKGPSVFPLAPSSKSTSGGTAALGCLVKDYFPEPVTVSWNSGALTSGVHTFPAVLQSSGLYSLSSVVTVPSSSLGTQTYICNVNHKPSNTKVDKKVEPKSCDKTHTCPPCPAPELLGGDSVFLFPPKPKDTLMISRTPEVTCVVIDVAHEDGEVKFNWYVDGVEVHNAKTKPREEQYNSTYRVVSVLTVLHQDWLNGKEYKCKVSNKALPAPIEKTISKAKGQPREPQVYTLPPSRDELTKNQVSLTCLVKGFYPSDIAVEWESNGQPENNYKTTPPVLDSDGSFFLYSKLTVDKSRWQQGNVFSCSVMHEALHNHYTQKSLSLSP light: not shown | 46.6 | 93.2 | 340 |
| IL6R-P768/IL6R-L (antibody, human IgG1, kappa) heavy: QVQLQESGPGLVKPSETLSLTCAVSGHSISHDHAWSWVRQPPGEGLEWIGFISYSGITNYNPSLQGRVTISRDNSKNTLYLQMNSLRAEDTAVYYCARSLARTTAMDYWGEGTLVTVSSASTKGPSVFPLAPSSKSTSGGTAALGCLVKDYFPEPVTVSWNSGALTSGVHTFPAVLQSSGLYSLSSVVTVPSSSLGTQTYICNVNHKPSNTKVDKKVEPKSCDKTHTCPPCPAPELLGGDSVFLFPPKPKDTLMISRTPEVTCVVIDVAHEDGEVKFNWYVDGVEVHNAKTKPREEQYNSTYRVVSVLTVLHQDWLNGKEYKCKVSNKGLPSSIEKTISKAKGQPREPQVYTLPPSRDELTKNQVSLTCLVKGFYPSDIAVEWESNGQPENNYKTTPPVLDSDGSFFLYSKLTVDKSRWQQGNVFSCSVMHEALHNHYTQKSLSLSP light: not shown | 14 | 80.9 | 305 |

The next lines start with the values.

| Amount of C1q-binding when that for G1d is Defined as 100 (human complement C1q) [G1d=100] | Relative FcgRIIaR-binding Activity (FcgRIIaR) [IL6R-G1d/IL6R-L=100] | Relative FcgRIIb-binding Activity (FcgRIIb) [IL6R-G1d/IL6R-L=100] | Binder |
| --- | --- | --- | --- |
| 21.8 | 88.1 | 286 | IL6R-P766/IL6R-L (antibody, human IgG1, kappa) heavy: QVQLQESGPGLVKPSETLSLTCAVSGHSISHDHAWSWVRQPPGEGLEWIGFISYSGITNYNPSLQGRVTISRDNSKNTLYLQMNSLRAEDTAVYYCARSLARTTAMDYWGEGTLVTVSSASTKGPSVFPLAPSSKSTSGGTAALGCLVKDYFPEPVTVSWNSGALTSGVHTFPAVLQSSGLYSLSSVVTVPSSSLGTQTYICNVNHKPSNTKVDKKVEPKSCDKTHTCPPCPAPELLGGDSVFLFPPKPKDTLMISRTPEVTCVVVDVAEEDGEVKFNWYVDGVEVHNAKTKPREEQYNSTYRVVSVLTVLHQDWLNGKEYKCKVSNKGLPSSIEKTISKAKGQPREPQVYTLPPSRDELTKNQVSLTCLVKGFYPSDIAVEWESNGQPENNYKTTPPVLDSDGSFFLYSKLTVDKSRWQQGNVFSCSVMHEALHNHYTQKSLSLSP light: not shown |
| 1.7 | 84.2 | 318 | IL6R-P767/IL6R-L (antibody, human IgG1, kappa) heavy: QVQLQESGPGLVKPSETLSLTCAVSGHSISHDHAWSWVRQPPGEGLEWIGFISYSGITNYNPSLQGRVTISRDNSKNTLYLQMNSLRAEDTAVYYCARSLARTTAMDYWGEGTLVTVSSASTKGPSVFPLAPSSKSTSGGTAALGCLVKDYFPEPVTVSWNSGALTSGVHTFPAVLQSSGLYSLSSVVTVPSSSLGTQTYICNVNHKPSNTKVDKKVEPKSCDKTHTCPPCPAPELLGGDSVFLFPPKPKDTLMISRTPEVTCVVIDVSEEDGEVKFNWYVDGVEVHNAKTKPREEQYNSTYRVVSVLTVLHQDWLNGKEYKCKVSNKGLPSSIEKTISKAKGQPREPQVYTLPPSRDELTKNQVSLTCLVKGFYPSDIAVEWESNGQPENNYKTTPPVLDSDGSFFLYSKLTVDKSRWQQGNVFSCSVMHEALHNHYTQKSLSLSP light: not shown |
| 23.1 | 89.5 | 329 | IL6R-P764/IL6R-L (antibody, human IgG1, kappa) heavy: QVQLQESGPGLVKPSETLSLTCAVSGHSISHDHAWSWVRQPPGEGLEWIGFISYSGITNYNPSLQGRVTISRDNSKNTLYLQMNSLRAEDTAVYYCARSLARTTAMDYWGEGTLVTVSSASTKGPSVFPLAPSSKSTSGGTAALGCLVKDYFPEPVTVSWNSGALTSGVHTFPAVLQSSGLYSLSSVVTVPSSSLGTQTYICNVNHKPSNTKVDKKVEPKSCDKTHTCPPCPAPELLGGDSVFLFPPKPKDTLMISRTPEVTCVVIDVSEEDGEVKFNWYVDGVEVHNAKTKPREEQYNSTYRVVSVLTVLHQDWLNGKEYKCKVSNKALPAPIEKTISKAKGQPREPQVYTLPPSRDELTKNQVSLTCLVKGFYPSDIAVEWESNGQPENNYKTTPPVLDSDGSFFLYSKLTVDKSRWQQGNVFSCSVMHEALHNHYTQKSLSLSP light: not shown |
